# In the supplement of paper PMC9112550, “Optimization of the antimicrobial peptide Bac7 by deep mutational scanning” (BMC Biology, 2022):
# Test system: Escherichia coli TOP10
# Assay: shrunken log2 fold change of peptide-encoding DNA abundance (4.5 h post-induction vs induction); higher = less antimicrobial activity (less host growth inhibition)
# Conditions: time post-induction: 4.5 h; library: site-saturation at positions 5, 18, 19, 20
# 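Also: peptides expressed intracellularly from a pBAD plasmid library in pooled LB shake-flask culture, induced with 0.3% L-arabinose, DNA abundance read by NGS, three biological replicates, DESeq2 with apeglm shrinkage.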
row,Sequence,shrunken log2 fold change
1,RRIRYRPPRLPRPRPRPARFPRP,0.181
2,RRIRHRPPRLPRPRPRPDDCPRP,-0.00674
3,RRIRERPPRLPRPRPRPLKFPRP,-0.377
4,RRIRVRPPRLPRPRPRPCMTPRP,0.0668
5,RRIRYRPPRLPRPRPRPESIPRP,-0.42
6,RRIRDRPPRLPRPRPRPTTAPRP,1.3
7,RRIRRRPPRLPRPRPRPRMNPRP,0.545
8,RRIRKRPPRLPRPRPRPTSLPRP,-0.00423
9,RRIRHRPPRLPRPRPRPNMSPRP,-0.245
10,RRIRIRPPRLPRPRPRPYRWPRP,0.0522
11,RRIRDRPPRLPRPRPRPTDEPRP,0.0606
12,RRIRMRPPRLPRPRPRPHESPRP,0.432
13,RRIRPRPPRLPRPRPRPPENPRP,0.365
14,RRIRSRPPRLPRPRPRPTVFPRP,0.222
15,RRIRMRPPRLPRPRPRPFMIPRP,-0.0423
16,RRIRMRPPRLPRPRPRPPGYPRP,0.599
17,RRIRERPPRLPRPRPRPSTQPRP,-0.177
18,RRIRSRPPRLPRPRPRPGWAPRP,0.706
19,RRIRSRPPRLPRPRPRPNEVPRP,-0.131
20,RRIRTRPPRLPRPRPRPEMWPRP,0.0446
21,RRIRQRPPRLPRPRPRPDDFPRP,-0.0929
22,RRIRERPPRLPRPRPRPGHAPRP,0.304
23,RRIRTRPPRLPRPRPRPIDTPRP,-0.157
24,RRIRIRPPRLPRPRPRPMQEPRP,-0.2
25,RRIRWRPPRLPRPRPRPCDMPRP,-0.173

row,Sequence,shrunken log2 fold change
1,RRIRCRPPRLPRPRPRPLWKPRP,0.101
2,RRIRGRPPRLPRPRPRPCQNPRP,0.0697
3,RRIRHRPPRLPRPRPRPWRMPRP,0.0309
4,RRIRMRPPRLPRPRPRPELPPRP,2.29
5,RRIRGRPPRLPRPRPRPKLIPRP,0.479
6,RRIRTRPPRLPRPRPRPDMCPRP,-0.0287
7,RRIRVRPPRLPRPRPRPDAPPRP,0.422
8,RRIRVRPPRLPRPRPRPHYEPRP,-0.173
9,RRIRPRPPRLPRPRPRPARCPRP,0.67
10,RRIRHRPPRLPRPRPRPEMFPRP,0.223
11,RRIRYRPPRLPRPRPRPMSDPRP,0.0277
12,RRIRGRPPRLPRPRPRPMDPPRP,0.00995
13,RRIRTRPPRLPRPRPRPRNSPRP,-0.193
14,RRIRPRPPRLPRPRPRPCPCPRP,-0.481
15,RRIRLRPPRLPRPRPRPASPPRP,0.0633
16,RRIRYRPPRLPRPRPRPKMLPRP,0.0981
17,RRIRQRPPRLPRPRPRPEQNPRP,-0.012
18,RRIRQRPPRLPRPRPRPQCMPRP,-0.496
19,RRIRWRPPRLPRPRPRPGPIPRP,0.171
20,RRIRIRPPRLPRPRPRPCDHPRP,-0.752
21,RRIRSRPPRLPRPRPRPWMFPRP,-0.0604
22,RRIRGRPPRLPRPRPRPWIQPRP,0.0532
23,RRIRDRPPRLPRPRPRPSWMPRP,-0.166
24,RRIRIRPPRLPRPRPRPNWRPRP,0.0227
25,RRIRQRPPRLPRPRPRPKESPRP,0.0355

row,Sequence,shrunken log2 fold change
1,RRIRPRPPRLPRPRPRPWHVPRP,-0.0812
2,RRIRHRPPRLPRPRPRPQNTPRP,-0.871
3,RRIRLRPPRLPRPRPRPQGTPRP,0.0413
4,RRIRQRPPRLPRPRPRPPAAPRP,0.778
5,RRIRCRPPRLPRPRPRPHPMPRP,-0.243
6,RRIRNRPPRLPRPRPRPDWPPRP,0.0862
7,RRIRLRPPRLPRPRPRPLIIPRP,-0.631
8,RRIRNRPPRLPRPRPRPASRPRP,0.12
9,RRIRMRPPRLPRPRPRPYPEPRP,-0.121
10,RRIRFRPPRLPRPRPRPVVPPRP,-0.196
11,RRIRWRPPRLPRPRPRPTGMPRP,0.117
12,RRIRLRPPRLPRPRPRPATCPRP,-0.597
13,RRIRTRPPRLPRPRPRPQNDPRP,-0.749
14,RRIRWRPPRLPRPRPRPRTMPRP,0.205
15,RRIRARPPRLPRPRPRPKYDPRP,-0.293
16,RRIRHRPPRLPRPRPRPQIKPRP,-0.889
17,RRIRARPPRLPRPRPRPMYCPRP,0.0455
18,RRIRHRPPRLPRPRPRPIDWPRP,0.0599
19,RRIRNRPPRLPRPRPRPNMAPRP,-0.214
20,RRIRHRPPRLPRPRPRPCYKPRP,-0.522
21,RRIRCRPPRLPRPRPRPLKWPRP,-0.0792
22,RRIRPRPPRLPRPRPRPQNDPRP,-0.371
23,RRIRKRPPRLPRPRPRPQEAPRP,-0.000925
24,RRIRVRPPRLPRPRPRPHDYPRP,-0.264
25,RRIRYRPPRLPRPRPRPHVVPRP,-0.261

row,Sequence,shrunken log2 fold change
1,RRIRTRPPRLPRPRPRPSWWPRP,0.125
2,RRIRIRPPRLPRPRPRPINAPRP,-0.431
3,RRIRQRPPRLPRPRPRPAKGPRP,0.01
4,RRIRCRPPRLPRPRPRPKKFPRP,-0.00227
5,RRIRKRPPRLPRPRPRPHTEPRP,0.0507
6,RRIRIRPPRLPRPRPRPLQMPRP,-0.264
7,RRIRVRPPRLPRPRPRPHEVPRP,-0.0408
8,RRIRKRPPRLPRPRPRPDTDPRP,0.198
9,RRIRTRPPRLPRPRPRPCIGPRP,-0.0176
10,RRIRARPPRLPRPRPRPSRNPRP,-0.0178
11,RRIRGRPPRLPRPRPRPCSSPRP,-0.129
12,RRIRLRPPRLPRPRPRPGCVPRP,0.182
13,RRIRPRPPRLPRPRPRPTNMPRP,-0.298
14,RRIRDRPPRLPRPRPRPDFYPRP,0.00164
15,RRIRYRPPRLPRPRPRPQIHPRP,-1.2
16,RRIRLRPPRLPRPRPRPPARPRP,0.789
17,RRIRIRPPRLPRPRPRPETSPRP,-0.239
18,RRIRHRPPRLPRPRPRPWWRPRP,0.219
19,RRIRFRPPRLPRPRPRPARLPRP,0.175
20,RRIRNRPPRLPRPRPRPDAWPRP,0.0835
21,RRIRARPPRLPRPRPRPRQFPRP,0.32
22,RRIRCRPPRLPRPRPRPTQLPRP,0.338
23,RRIRMRPPRLPRPRPRPPARPRP,1.4
24,RRIRARPPRLPRPRPRPYITPRP,-0.904
25,RRIRIRPPRLPRPRPRPQYWPRP,-0.361

row,Sequence,shrunken log2 fold change
1,RRIRARPPRLPRPRPRPGYWPRP,0.363
2,RRIRPRPPRLPRPRPRPRLRPRP,0.458
3,RRIRLRPPRLPRPRPRPTFEPRP,-0.336
4,RRIRYRPPRLPRPRPRPALYPRP,-0.284
5,RRIRHRPPRLPRPRPRPRNWPRP,0.0465
6,RRIRKRPPRLPRPRPRPQYKPRP,-0.343
7,RRIRIRPPRLPRPRPRPMEWPRP,-0.00133
8,RRIRNRPPRLPRPRPRPMNPPRP,-0.235
9,RRIRVRPPRLPRPRPRPVTLPRP,-0.227
10,RRIRCRPPRLPRPRPRPGAMPRP,0.319
11,RRIRSRPPRLPRPRPRPRNNPRP,-0.212
12,RRIRQRPPRLPRPRPRPFFPPRP,-0.0441
13,RRIRDRPPRLPRPRPRPEFQPRP,0.4
14,RRIRYRPPRLPRPRPRPFIPPRP,-0.296
15,RRIRLRPPRLPRPRPRPHELPRP,0.245
16,RRIRYRPPRLPRPRPRPPCCPRP,-0.149
17,RRIRWRPPRLPRPRPRPPAAPRP,0.913
18,RRIRKRPPRLPRPRPRPSTCPRP,-0.0517
19,RRIRSRPPRLPRPRPRPFVSPRP,-0.481
20,RRIRNRPPRLPRPRPRPECMPRP,0.406
21,RRIRERPPRLPRPRPRPGPCPRP,0.183
22,RRIRNRPPRLPRPRPRPFVPPRP,-0.263
23,RRIRLRPPRLPRPRPRPVSFPRP,0.0353
24,RRIRIRPPRLPRPRPRPFIKPRP,-0.913
25,RRIRFRPPRLPRPRPRPFRYPRP,-0.151

row,Sequence,shrunken log2 fold change
1,RRIRWRPPRLPRPRPRPRWCPRP,-0.00787
2,RRIRARPPRLPRPRPRPSNTPRP,-0.31
3,RRIRTRPPRLPRPRPRPGGNPRP,-0.264
4,RRIRQRPPRLPRPRPRPRWNPRP,-0.0799
5,RRIRHRPPRLPRPRPRPYATPRP,-0.172
6,RRIRPRPPRLPRPRPRPAYCPRP,-0.215
7,RRIRMRPPRLPRPRPRPRGYPRP,0.0597
8,RRIRNRPPRLPRPRPRPSVLPRP,0.0978
9,RRIRCRPPRLPRPRPRPMLKPRP,-0.141
10,RRIRCRPPRLPRPRPRPRKSPRP,0.126
11,RRIRDRPPRLPRPRPRPHKFPRP,-0.122
12,RRIRERPPRLPRPRPRPVIVPRP,-0.373
13,RRIRSRPPRLPRPRPRPRRVPRP,0.452
14,RRIRERPPRLPRPRPRPCSQPRP,-0.0493
15,RRIRARPPRLPRPRPRPQPVPRP,0.292
16,RRIRTRPPRLPRPRPRPLSVPRP,-0.0398
17,RRIRVRPPRLPRPRPRPKISPRP,-0.234
18,RRIRQRPPRLPRPRPRPYYWPRP,0.0316
19,RRIRERPPRLPRPRPRPCHMPRP,0.0597
20,RRIRWRPPRLPRPRPRPYSLPRP,-0.201
21,RRIRERPPRLPRPRPRPARGPRP,0.644
22,RRIRKRPPRLPRPRPRPDEDPRP,-0.00112
23,RRIRQRPPRLPRPRPRPSMMPRP,-0.565
24,RRIRYRPPRLPRPRPRPIRTPRP,-0.258
25,RRIRPRPPRLPRPRPRPALPPRP,1.63
